# Experiments:
# [1] = molecular target: T1, recombinant His-tagged human FcγRIa (human, UniProt P12314 16-288, limits assumed); assay: SPR (Biacore), His-tagged FcγRIa captured on anti-His chip, antibody in solution, resonance units against antibody concentration
# T1 construct: Bought; captured on anti-His chip; not shown: His tag
# Experimental: Biacore surface chips were covalently linked with anti-His antibody and coated with recombinant His-tagged Fc receptors (A) FcγRIa, (B) FcγRIIa-H, (C) FcγRIIa-R, (D) FcγRIIb, (E) FcγRIIIa-F, or (F) FcγRIIIa-V. The anti-HIV-gp120 antibody IgG1-b12 (ctrl) was included as a reference. Shown are absolute resonance units as determined by Biacore SPR after background subtraction (no Fc receptor flow-cell).
# Binding of IgG1-CD27-A-P329R-E345R to human FcγR variants was analyzed using a Biacore surface plasmon resonance (SPR) system and compared to an anti-HIV gp120 antibody IgG1-b12 (ctrl). Biacore Series S Sensor Chips CM5 (Cytiva, Cat #29104988) were covalently coated with anti-His antibody using amine-coupling and His capture kits (Cytiva, Cat #BR100050 and Cat #29234602) according to the manufacturer's instructions. […] After three cycles of buffer, antibody samples were injected for 36 cycles to generate binding curves using antibody ranges of 0-3,000 nM for FcγRI and 0-10,000 nM for the other FcγRs. Each sample that was analyzed on an FcR-coated surface (Active Surface) was also analyzed on a parallel flow-cell without FcR (Reference Surface), which was used for background correction. Dissociation from the anti-His-coated surface was performed by regeneration of the surface using 10 mM Glycine-HCl pH 1.5 (Cytiva, Cat #BR100354). […]
# [2] = molecular target: T2, recombinant His-tagged human FcγRIIb (human, UniProt P31994 43-217); assay: SPR (Biacore), His-tagged FcγRIIb captured on anti-His chip, antibody in solution, resonance units against antibody concentration
# T2 construct: Bought; captured on anti-His chip; not shown: His tag
# T2 sequence (looked up): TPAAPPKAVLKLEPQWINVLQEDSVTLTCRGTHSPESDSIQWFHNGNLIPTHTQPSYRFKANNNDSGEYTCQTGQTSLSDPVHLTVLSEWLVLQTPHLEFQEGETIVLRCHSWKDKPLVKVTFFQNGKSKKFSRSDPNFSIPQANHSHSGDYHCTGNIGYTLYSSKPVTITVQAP
# [3] = molecular target: T3, recombinant His-tagged human FcγRIIIa (176-Val [V]) (human, UniProt P08637 17-208); assay: SPR (Biacore), His-tagged FcγRIIIa-V captured on anti-His chip, antibody in solution, resonance units against antibody concentration
# T3 construct: Bought; captured on anti-His chip; also called FcγRIIIa-V; not shown: His tag
# [4] = molecular target: T4, human C1q (from normal human serum) (human, UniProt P02745 23-245; P02746 28-253; P02747 29-245); assay: flow cytometry, C1q (20% normal human serum) on human T cells pre-incubated with the antibody, FITC rabbit anti-human C1q, median MFI FITC; antibody concentration varied
# T4 construct: 20% normal human serum was the source of C1q
# Experimental: The P329R mutation was previously described to reduce interaction of IgG1 antibodies with C1q and FcgR (Overdijk et al, Molecular Cancer Therapeutics 2020). The effect of the P329R mutation on C1q binding of IgG1-CD27-A comprising the E345R mutation was tested in cellular C1q binding assays in vitro using human healthy donor T cells. Anti-HIV gp120 antibody IgG1-b12-F405L was used as non-binding isotype control antibody (ctrl). […] T cells (2×10⁶ cells/well) were pre-incubated in polystyrene 96-well round-bottom plates with antibody dilution series (8× five-fold dilution starting at 15 μg/mL final assay concentration) for 15 min at 37° C. to allow the antibodies to bind to the T cells. Then, cells were cooled on ice, supplemented with NHS as a source of human C1q (20% NHS final assay concentration) and incubated on ice for 45 min. Cells were subsequently incubated on ice with FITC-labeled Rabbit anti-human C1q antibody (DAKO, Cat #F0254; 20 μg/mL) for 30 min and resuspended in FACS buffer with TO-PRO-3 (ThermoFisher, Cat #T3605; 1:5,000 dilution). C1q binding was determined by flow cytometry measuring the FITC signal on live cells.
# T1 sequence (P12314 16-288 limits assumed): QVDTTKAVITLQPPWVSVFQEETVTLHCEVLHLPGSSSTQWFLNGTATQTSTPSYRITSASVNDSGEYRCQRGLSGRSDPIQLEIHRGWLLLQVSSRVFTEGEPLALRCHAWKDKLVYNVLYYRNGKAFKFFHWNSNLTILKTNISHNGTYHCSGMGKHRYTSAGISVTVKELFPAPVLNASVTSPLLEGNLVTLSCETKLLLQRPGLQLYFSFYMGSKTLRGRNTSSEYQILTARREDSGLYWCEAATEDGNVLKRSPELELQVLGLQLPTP
# T3 sequence (P08637 17-208 F176V limits assumed): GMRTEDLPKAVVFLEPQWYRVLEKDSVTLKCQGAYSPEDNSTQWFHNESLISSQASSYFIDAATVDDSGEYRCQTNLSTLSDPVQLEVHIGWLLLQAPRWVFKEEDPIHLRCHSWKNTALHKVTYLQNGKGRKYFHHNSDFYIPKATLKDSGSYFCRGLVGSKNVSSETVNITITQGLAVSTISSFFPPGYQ
# T4 sequence (P02745 23-245 limits assumed, chain 1 of 3): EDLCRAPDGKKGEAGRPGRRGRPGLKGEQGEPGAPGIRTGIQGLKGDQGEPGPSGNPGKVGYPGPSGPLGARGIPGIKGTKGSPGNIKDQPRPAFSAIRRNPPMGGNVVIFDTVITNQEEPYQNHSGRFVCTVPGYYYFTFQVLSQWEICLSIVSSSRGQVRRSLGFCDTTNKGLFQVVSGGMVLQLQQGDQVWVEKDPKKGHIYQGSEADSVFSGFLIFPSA
# T4 sequence (P02746 28-253 limits assumed, chain 2 of 3): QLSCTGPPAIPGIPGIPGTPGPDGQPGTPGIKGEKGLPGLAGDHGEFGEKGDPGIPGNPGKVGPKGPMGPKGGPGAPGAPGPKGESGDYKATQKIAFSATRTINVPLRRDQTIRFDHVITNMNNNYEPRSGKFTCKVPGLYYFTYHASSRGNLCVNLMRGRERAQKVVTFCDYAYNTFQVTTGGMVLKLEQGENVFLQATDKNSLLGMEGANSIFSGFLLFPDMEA
# T4 sequence (P02747 29-245 limits assumed, chain 3 of 3): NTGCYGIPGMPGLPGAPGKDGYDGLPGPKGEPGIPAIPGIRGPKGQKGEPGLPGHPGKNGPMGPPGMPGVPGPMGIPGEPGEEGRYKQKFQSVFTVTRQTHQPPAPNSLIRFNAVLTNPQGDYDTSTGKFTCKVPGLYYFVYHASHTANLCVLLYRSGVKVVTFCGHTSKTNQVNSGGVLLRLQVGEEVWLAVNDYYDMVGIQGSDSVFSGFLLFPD
binder,measurement,setting,value
"IgG1-CD27-A-P329R-E345R (antibody, also called IgG1-CD27-A-E345R-P329R) heavy: not shown light: QSALTQPASVSGSPGQSITISCTGTSSDVYYYNYVSWYQQHPGRAPKLVIYDVSNRPSGVSNRFSGSKSGNTASLTISGLRAEDEADYYCSSYTVNRVWVFGGGTKLTVLGQPKAAPSVTLFPPSSEELQANKATLVCLISDFYPGAVTVAWKADSSPVKAGVETTTPSKQSNNKYAASSYLSLTPEQWKSHRSYSCQVTHEGSTVEKTVAPTECS",binding result,[1],binds
same,binding result,[2],"no binding (tested: 10,000 nM)"
same,binding result,[3],"no binding (tested: 10,000 nM)"
same,binding result,[4],no binding (tested: 15 µg/mL)

# From patent US20250289899A1 (Genmab, published 2025)
